Data as given in patent publication US20210085770A1.
Read-outs that look alike come from different tables or passages of the source.

Columns and labels:
[1] = target: recombinant SARS-CoV-2 S1 protein expressed from insect (Sf9) cells (S1-His, SinoBiological, Cat. No. 40591-V08B1) (SARS-CoV-2) (UniProt P0DTC2); test: ELISA, coated insect-cell S1-His, HRP-conjugated lectin 10 ug/mL
[2] = target: recombinant SARS-CoV-2 S1 protein expressed from insect (Sf9) cells (S1-His, SinoBiological, Cat. No. 40591-V08B1) (SARS-CoV-2) (UniProt P0DTC2)

Sequence of Peanut Agglutinin (PNA), lectin from Arachis hypogaea (P02872 24-259 limits assumed): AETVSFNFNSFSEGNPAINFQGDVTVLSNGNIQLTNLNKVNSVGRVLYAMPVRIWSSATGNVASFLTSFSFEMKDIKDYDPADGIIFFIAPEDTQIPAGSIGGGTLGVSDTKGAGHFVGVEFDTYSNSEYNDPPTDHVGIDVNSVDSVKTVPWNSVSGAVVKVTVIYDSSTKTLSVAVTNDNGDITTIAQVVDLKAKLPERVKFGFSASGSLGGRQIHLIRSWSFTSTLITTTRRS
Sequence of Maclura pomifera lectin (MPA) (P18674 whole entry): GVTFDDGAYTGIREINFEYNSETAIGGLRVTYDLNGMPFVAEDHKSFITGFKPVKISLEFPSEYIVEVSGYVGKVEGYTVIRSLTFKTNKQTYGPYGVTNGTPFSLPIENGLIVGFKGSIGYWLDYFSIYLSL
Sequence of Maclura pomifera lectin (MPA) (P18676 whole entry, further chain): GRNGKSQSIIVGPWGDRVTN

Substance Maclura pomifera lectin (MPA) has a mean fold increase of OD450 [1] of 7.51 fold.

For “Peanut Agglutinin (PNA), lectin from Arachis hypogaea (from UniProt P02872 24-259)”, the mean fold increase of OD450 [1] was 22.7 fold.

With “SPM320 IgM anti-TF monoclonal antibody (Abnova, Cat. No. MAB13207)” the mean fold increase of OD450 [2] was 5.5 fold.

For Salvia sclarea lectin (SSA), the mean fold increase of OD450 [1] was 3.97 fold.

“Tn218 IgM anti-Tn monoclonal antibody (Abnova, Cat. No. MAB6198)” was tested, and the mean fold increase of OD450 [2] was 1.77 fold.

In the case of mouse monoclonal IgG3 antibody JAA-F11, the mean fold increase of OD450 [2] was 3.32 fold.
